Measured values: PMC4833410, “Structure-Guided Mutations in the Terminal Organelle Protein MG491 Cause Major Motility and Morphologic Alterations on Mycoplasma genitalium” (PLoS Pathogens, 2016)

B1: seleno methionine-labeled MG491-Nt (domain or fragment)
chain: MVNNEYQQLNTLVESDDEADLVIANLVKQLNELKQMLVSLDNQEASATAVTDKKEEEYNQNQSSFHNFSKETLQKQAKRGFLLLERCSLVGLQQLELEYVNLLGRSFDSYQQKTELLNNLKELVDEHFSDTEKIINTLEKIFDVIGGSEYTPVLNSFFNKLLSDPDPMQREIGLRQFIITLRQRFKKLSQKIDSSLKQIETEAKMATEQVQNSEVMFGPPDIANDHELNLNWPDSETDAILSSMENELEAALLAKHQEEPPLIVTPPSLIKPTVSQPEVEVVTPTNNTNFQPQVDLKPTDLKKQQKKK
modifications: seleno methionines at 36, 168 and 205
notes: MG491 of Mycoplasma genitalium G37, residues 1-308, with Ile36, Ile168 and Ile205 replaced by (seleno)methionine; residues 65-204, 67-203, 66-203 and 62-205 of subunits A-D are seen in the structure; also called Seleno methionine MG491-Nt; MG491-Nt variant with Ile36, Ile168, Ile205 replaced by seleno methionines; source: E. coli BL21 (DE3) in SelenoMet medium, purified (HisTrap HP, Superdex 200 …)
B2: full length MG491 protein (residues 1 to 346) (natural protein)
chain: MVNNEYQQLNTLVESDDEADLVIANLVKQLNELKQILVSLDNQEASATAVTDKKEEEYNQNQSSFHNFSKETLQKQAKRGFLLLERCSLVGLQQLELEYVNLLGRSFDSYQQKTELLNNLKELVDEHFSDTEKIINTLEKIFDVIGGSEYTPVLNSFFNKLLSDPDPIQREIGLRQFIITLRQRFKKLSQKIDSSLKQIETEAKIATEQVQNSEVMFGPPDIANDHELNLNWPDSETDAILSSMENELEAALLAKHQEEPPLIVTPPSLIKPTVSQPEVEVVTPTNNTNFQPQVDLKPTDLKKQQKKKPLNFITRPVFKSNLPPKLSKDDIVHYAHQLLEKNTHNE
notes: MG491, terminal organelle protein of Mycoplasma genitalium G37, residues 1-346; the TGA codon of Trp232 was changed to TGG for expression in E. coli (no change of the protein); Cloned in pET21d between NdeI and XhoI; In the crystals the C-terminal region was lost by proteolysis; also called MG_491 gene product; wild type MG491; source: E. coli BL21 (DE3), purified (HisTrap HP, Superdex 200 16/60)

What was measured:
[1] = molecular target: MG491-Nt (residues 1 to 308) (Mycoplasma genitalium G37) (UniProt Q9ZB78); test: SEC; Superdex 200 16/60 gel filtration column, 0.05 M Tris-HCl (pH 8.0), 0.15 M NaCl; apparent molecular weight
[2] = molecular target: MG491-Nt (residues 1 to 308) (Mycoplasma genitalium G37) (UniProt Q9ZB78); test: native MS; nano-ElectroSpray Ionization Mass Spectrometry, 10 μM MG491-Nt in 100 mM NH4OAc, acquisition range 500-8000 m/z
[3] = molecular target: MG491-Nt (residues 1 to 308) (Mycoplasma genitalium G37) (UniProt Q9ZB78); test: crystal structure; vapour diffusion at 20°C, 0.2 M lithium sulphate, 25% PEG 3350, pH 6.5-8.5; space group P2(1)2(1)2, four subunits in the asymmetric unit; SAD on seleno methionine MG491-Nt, averaging between crystals
[4] = molecular target: the molecule itself; test: as above

Row | Molecule | stoichiometry N [1] | stoichiometry N [2] | stoichiometry N [3] | stoichiometry N [4]
1 | MG491-Nt (residues 1 to 308) (from UniProt Q9ZB78 1-308) (domain or fragment) | 4 | 4 | 4 | 
2 | B1 |  |  |  | 4
3 | B2 |  |  |  | 4
